Test results: PMC11487272

Tests used:
[1] = biological target: cFLIP^tDED_H7G (cFLIP tandem DED, residues 1-181, H7G) (UniProt O15519); test: crystal structure
[2] = biological target: wild-type cFLIP^tDED as used in the ternary co-purification (UniProt O15519); test: cryo-EM structure

stoichiometry N (molecules in the complex) [1]	stoichiometry N (molecules in the complex (Complex D)) [2]	stoichiometry N (molecules in the complex (Complex E)) [2]	stoichiometry N (molecules in the complex (Complex F)) [2]	stoichiometry N (molecules in the complex (Complex G)) [2]	Substance
6	–	–	–	–	cFLIP^tDED_H7G (cFLIP tandem DED, residues 1-181, H7G) (from UniProt O15519 1-181) (domain or fragment)
–	5	6	8	4	wild-type cFLIP^tDED as used in the ternary co-purification (from UniProt O15519 1-181) (domain or fragment)
